# According to US20250327097A1, “ORGANISMS PRODUCING LESS CROTONIC ACID” (Global Bioenergies, priority 2021, published 2025):
# Substitutions are numbered along the chain they refer to. Names and notes keep the numbering of the source.
# B1: V272I-I283T-P284D-i284aP-N287P-S322T-N388M-E421V-C430N-L432F-L434W-S436N-C437F-Y438L-H461T-G462R-i462aA-A463T (protein)
# chain: MFLKSLREQINLLKRQGDLRIINRPVDSYLEAAAIIRRSTETKAPVPLMTNIKGYPGCSIVGGLAALSSNPEYPLSRVAMSLGLSTTASAQSIVQYLIDGLKKTPYLPVEIDSNSAPCKQNILRGEDASLAHFPIPQVHQHDGNRYVNTWGVFIVESPDGQWCNWSIQRVQYLNDRQMIALVFPSQHISDIWEEWVKIGKPMPYALVQGCEPIVPYIAGLPLLERNVNEAEYIGALYGKGIEVVKCETHDLRVPASSEVVIEGYFAITREGIEGPFGEFAGYTDNEPSLQPILSITAISWQDDPIWPVVAEGKPVDEYHTCTGIGDAAAIQNVLLTANLPVSFVWVPLYSACHLMIVSINRHWRQTHPDLTSEQLTKKVGDVIHQTRMSIKLPKIVVLDDDVDPADTESLLWALATRIHPVRKRYFYESNIFPWLNFLSEEERHNRKGKRVIIDALLPENTRTISSFDYAYPDDIKQRVLMHWETDFSHD
# B2: V272R-I283T-P284D-i284aP-N287P-S322T-N388M-I418V-E421V-C430N-L432F-L434W-S436N-G448E-H461T-G462R-i462aA-A463T (protein)
# chain: B1 chain with I272R, I418V, F437C, L438Y, G448E
# B3: V272R-I283T-P284D-i284aP-N287P-S322T-N388M-E421V-C430N-L432F-L434W-S436N-E441H-G448E-H461T-G462R-i462aA-A463T (protein)
# chain: B1 chain with I272R, F437C, L438Y, E441H, G448E
# B4: G17S-V272R-I283T-P284D-i284aP-N287P-S322T-N388M-E421K-C430N-L432F-L434W-S436N-G448E-H461T-G462R-i462aA-A463T (protein)
# chain: B1 chain with G17S, I272R, V421K, F437C, L438Y, G448E
# B5: V272R-I283T-P284D-i284aP-N287P-S322T-N388M-E421V-E428T-C430N-L432F-L434W-S436N-G448E-H461T-G462R-i462aA-A463T (protein)
# chain: B1 chain with I272R, E428T, F437C, L438Y, G448E
# B6: V272R-I283T-P284D-i284aP-N287P-S322T-N388M-E421V-E428T-C430N-L432F-L434W-S436N-K447I-G448E-H461T-G462R-i462aA-A463T (protein)
# chain: B1 chain with I272R, E428T, F437C, L438Y, K447I, G448E
# B7: S39G-V272R-I283T-P284D-i284aP-N287P-S322T-N388M-E421V-F426L-E428T-C430N-L432F-L434W-S436N-G448E-H461T-G462R-i462aA-A463T (protein)
# chain: B1 chain with S39G, I272R, F426L, E428T, F437C, L438Y, G448E
# B8: E224P-I283T-N285P-N287T-Q290E-S322T-N388M-S389H-K394R-C430A-i430aG-L432F-L434W-S436N-I453L-dG462 (protein)
# chain: MFLKSLREQINLLKRQGDLRIINRPVDSYLEAAAIIRRSTETKAPVPLMTNIKGYPGCSIVGGLAALSSNPEYPLSRVAMSLGLSTTASAQSIVQYLIDGLKKTPYLPVEIDSNSAPCKQNILRGEDASLAHFPIPQVHQHDGNRYVNTWGVFIVESPDGQWCNWSIQRVQYLNDRQMIALVFPSQHISDIWEEWVKIGKPMPYALVQGCEPIVPYIAGLPLLPRNVNEAEYIGALYGKGIEVVKCETHDLRVPASSEVVIEGYFAITREGVEGPFGEFAGYTPPETSLEPILSITAISWQDDPIWPVVAEGKPVDEYHTCTGIGDAAAIQNVLLTANLPVSFVWVPLYSACHLMIVSINRHWRQTHPDLTSEQLTKKVGDVIHQTRMHIKLPRIVVLDDDVDPADTESLLWALATRIHPERKRYFYESAIFPWLNCYSEEERHNRKGKRVILDALLPENHGAISSFDYAYPDDIKQRVLMHWETDFSHD
# Test system: 3-methylcrotonic acid
# Format: biochemical, Yersinia frederiksenii
# Design: key: “+” representing a low increase in activity; “++++” representing a high increase in activity
row,Molecule,Activity relative to WT
1,B1,++++
2,B2,++++
3,B3,++++
4,B4,++++
5,B5,++++
6,B6,++++
7,B7,++++
8,B8,++++
